In patent US11306156 one finds H2L2:H2L1 normalized median ratio, H1L1:H1L2 normalized median ratio and H1L1:H1L2 normalized median scalar value ln(r1/f1) data, which are given here for eight substances.

Several values for one entry are separate records, joined by “and”; a condition that tells them apart may be missing. Equal entries are not always repeated.

Test [1] concerns the target D3H44 Fab heavy chain S186R, C-terminal ABD2-His6 tag. Description: LCCA: heavy chain co-expressed with two light chains, SPR detection of light chain tags; L1:L2 DNA 1:3, normalized to 1:1; competing light chain m20.
The target of test [2] is D3H44 Fab heavy chain L143E_K145T_Q179E_S188L, C-terminal ABD2-His6 tag. The test is described as above.
Test [3] has as its target D3H44 Fab heavy chain L143E_K145T_S188L, C-terminal ABD2-His6 tag. Kind of test: LCCA: heavy chain co-expressed with two light chains, SPR detection of light chain tags; L1:L2 DNA 1:3, normalized to 1:1; competing light chain m11.
The target of test [4] is D3H44 Fab heavy chain Q179R, C-terminal ABD2-His6 tag. Described as above.
Test [5] has as its target D3H44 Fab heavy chain S186K, C-terminal ABD2-His6 tag. The description is as above.
For test [6], the target named is D3H44 Fab heavy chain L143E_K145T_S188L, C-terminal ABD2-His6 tag. Description: LCCA: heavy chain co-expressed with two light chains, SPR detection of light chain tags; L1:L2 DNA 1:9, normalized to 1:1; competing light chain m11.
The target in test [7] is D3H44 Fab heavy chain S186K, C-terminal ABD2-His6 tag. The test is described as above.
Test [8] concerns the target D3H44 Fab heavy chain L143E_K145T. Description: LCCA, L1:L2 DNA 1:3 normalised to 1:1, SPR of light chain tags; competitor m34.
Test [9] has as its target D3H44 Fab heavy chain L143K_D146G. Described as above.
The target in test [10] is D3H44 Fab heavy chain L143R. Description: LCCA, L1:L2 DNA 1:3 normalised to 1:1, SPR of light chain tags; competitor m33.
Test [11] concerns the target D3H44 Fab heavy chain L143E_K145T_S188L. Described as above.
The target of test [12] is D3H44 Fab heavy chain L143R, C-terminal ABD2-His6 tag. Description: LCCA: heavy chain co-expressed with two light chains, SPR detection of light chain tags; L1:L2 DNA 1:3, normalized to 1:1; competing light chain m19.
In test [13] the target is D3H44 Fab heavy chain L143E_K145T, C-terminal ABD2-His6 tag. Described as above.
Test [14] addresses D3H44 Fab heavy chain L143E_K145T_S188L. Kind of test: LCCA, L1:L2 DNA 1:3 normalised to 1:1, SPR of light chain tags; competitor m37.
Test [15] concerns the target D3H44 Fab heavy chain L143E_K145T. Kind of test: LCCA, L1:L2 DNA 1:3 normalised to 1:1, SPR of light chain tags; competitor m32.
Test [16] has as its target D3H44 Fab heavy chain L143E_K145T, C-terminal ABD2-His6 tag. Kind of test: LCCA: heavy chain co-expressed with two light chains, SPR detection of light chain tags; L1:L2 DNA 1:9, normalized to 1:1; competing light chain m13.
Test [17] has as its target D3H44 Fab heavy chain S186K, C-terminal ABD2-His6 tag. The test is described as above.
The target in test [18] is D3H44 Fab heavy chain L143E_K145T_S188L, C-terminal ABD2-His6 tag. Description: LCCA: heavy chain co-expressed with two light chains, SPR detection of light chain tags; L1:L2 DNA 1:3, normalized to 1:1; competing light chain m14.
Test [19] has as its target D3H44 Fab heavy chain S186K, C-terminal ABD2-His6 tag. The description is as above.
The target of test [20] is D3H44 Fab heavy chain Q179K, C-terminal ABD2-His6 tag. The test is described as above.
Test [21] addresses D3H44 Fab heavy chain L143E_K145T, C-terminal ABD2-His6 tag. Kind of test: LCCA: heavy chain co-expressed with two light chains, SPR detection of light chain tags; L1:L2 DNA 1:3, normalized to 1:1; competing light chain m15.
Test [22] addresses D3H44 Fab heavy chain Q179K, C-terminal ABD2-His6 tag. The description is as above.
The target in test [23] is D3H44 Fab heavy chain L143E_K145T, C-terminal ABD2-His6 tag. Kind of test: LCCA: heavy chain co-expressed with two light chains, SPR detection of light chain tags; L1:L2 DNA 1:3, normalized to 1:1; competing light chain m13.
The target in test [24] is D3H44 Fab heavy chain L143E_K145T_S188L, C-terminal ABD2-His6 tag. Description: LCCA: heavy chain co-expressed with two light chains, SPR detection of light chain tags; L1:L2 DNA 1:3, normalized to 1:1; competing light chain m16.
For test [25], the target named is D3H44 Fab heavy chain Q179K, C-terminal ABD2-His6 tag. Described as above.
The target in test [26] is D3H44 Fab heavy chain L143E_K145T_S188L, C-terminal ABD2-His6 tag. Description: LCCA: heavy chain co-expressed with two light chains, SPR detection of light chain tags; L1:L2 DNA 1:9, normalized to 1:1; competing light chain m17.
For test [27], the target named is D3H44 Fab heavy chain L143R, C-terminal ABD2-His6 tag. The test is described as above.
For test [28], the target named is D3H44 Fab heavy chain L143E_K145T_S188L, C-terminal ABD2-His6 tag. Kind of test: LCCA: heavy chain co-expressed with two light chains, SPR detection of light chain tags; L1:L2 DNA 1:3, normalized to 1:1; competing light chain m17.
Test [29] has as its target D3H44 Fab heavy chain L143R, C-terminal ABD2-His6 tag. The test is described as above.
The target in test [30] is D3H44 Fab heavy chain L143E_K145T_S188L, C-terminal ABD2-His6 tag. Description: LCCA: heavy chain co-expressed with two light chains, SPR detection of light chain tags; L1:L2 DNA 1:3, normalized to 1:1; competing light chain m12.
Test [31] addresses D3H44 Fab heavy chain Q179R, C-terminal ABD2-His6 tag. The test is described as above.
Test [32] has as its target D3H44 Fab heavy chain S186K, C-terminal ABD2-His6 tag. The test is described as above.
In test [33] the target is D3H44 Fab heavy chain L143E_K145T_S188L, C-terminal ABD2-His6 tag. Description: LCCA: heavy chain co-expressed with two light chains, SPR detection of light chain tags; L1:L2 DNA 1:9, normalized to 1:1; competing light chain m12.
For test [34], the target named is D3H44 Fab heavy chain S186K, C-terminal ABD2-His6 tag. The test is described as above.
In test [35] the target is D3H44 Fab heavy chain S186R, C-terminal ABD2-His6 tag. Description: LCCA: heavy chain co-expressed with two light chains, SPR detection of light chain tags; L1:L2 DNA 1:3, normalized to 1:1; competing light chain m12.
For test [36], the target named is D3H44 Fab heavy chain L143E_K145T_Q179E_S188L, C-terminal ABD2-His6 tag. The description is as above.
For test [37], the target named is D3H44 Fab heavy chain S186R. Description: LCCA, L1:L2 DNA 1:3 normalised to 1:1, SPR of light chain tags; competitor m31.
Test [38] addresses D3H44 Fab heavy chain L143E_K145T. The test is described as above.
In test [39] the target is D3H44 Fab heavy chain Q179K. Described as above.
For test [40], the target named is D3H44 Fab heavy chain Q179R. The description is as above.
Test [41] deals with D3H44 Fab heavy chain S186R. Description: LCCA, L1:L2 DNA 1:3 normalised to 1:1, SPR of light chain tags; competitor m33.
The target of test [42] is D3H44 Fab heavy chain L143E_K145T. The test is described as above.

Regarding “D3H44 light chain Q124E_S131T_T178Y_T180E, N-terminal HA or FLAG tag”, the H2L2:H2L1 normalized median ratio in test [1] was 88%; in test [4], 95%; in test [5], 94%; in test [7], 89%. Further, the H1L1:H1L2 normalized median ratio was found to be 17% in [2], 26% in [3] and 16% in [6].
Consider D3H44 light chain Q124E_V133D, for which the H1L1:H1L2 normalized median ratio in test [8] turned out to be 33%. Also, the H2L2:H2L1 normalized median ratio in test [9] was found to be 91%.
Regarding D3H44 light chain Q124E_V133E, in test [10], the H2L2:H2L1 normalized median ratio is 96%. In addition, in test [11], the H1L1:H1L2 normalized median ratio came to 49%.
Take “D3H44 light chain Q124R, N-terminal HA or FLAG tag”: the H2L2:H2L1 normalized median ratio in [12] was 12%. In test [13], the H1L1:H1L2 normalized median ratio came to 85% and the H1L1:H1L2 normalized median scalar value ln(r1/f1) came out at 1.77.
Take D3H44 light chain Q124R_Q160K_T178R: the H1L1:H1L2 normalized median scalar value ln(r1/f1) in test [14] is 0.03; in [15], -0.14.
Consider “D3H44 light chain Q124R_Q160K_T178R, N-terminal HA or FLAG tag”, for which the H1L1:H1L2 normalized median ratio in [16] was found to be 81%; in test [18], 57%; in test [21], 47%; in test [23], 82%; in test [24], 59%; in test [26], 86%. In addition, the figures for the H1L1:H1L2 normalized median ratio in test [28], in test [30] and in test [33] were 74%, 74% and 84%, respectively. The H1L1:H1L2 normalized median scalar value ln(r1/f1) was 1.44 in test [16]; 0.28 and 0.23 in test [18]; -0.14 in [21]; 1.77 in test [23]; 0.37 in test [24]; 1.79 in test [26]. Also, the H1L1:H1L2 normalized median scalar value ln(r1/f1) amounted to 1.04 in [28], 1.03 in test [30] and 1.65 in [33]. Besides, the H2L2:H2L1 normalized median ratio is 10% in test [17]; 3% in test [19]; 3% in [20]; 2% in test [22]; 3% in test [25]; 21% in test [27]. The H2L2:H2L1 normalized median ratio in [29] came out at 6%; in [31], 5%; in test [32] it was 6%; in test [34], 11%.
For the substance “D3H44 light chain Q124R_T178R, N-terminal HA or FLAG tag”, the H2L2:H2L1 normalized median ratio in test [35] was 12%. Besides, in [36], the H1L1:H1L2 normalized median ratio amounted to 83% and the H1L1:H1L2 normalized median scalar value ln(r1/f1) is 1.62.
Regarding D3H44 light chain S131E, the H2L2:H2L1 normalized median ratio in test [37] came to 95%; in test [39], 97%; in test [40] it was 97%; in [41], 96%. The values for the H1L1:H1L2 normalized median ratio in test [38] and in test [42] were 54% and 53%, respectively.
